Columns and labels:
[1] = molecular target: Human rRAGE, full-length RAGE recombinant protein from Merck (human) (UniProt Q15109); test: SPR, antibody amine-coupled to a CM5 chip as ligand, rRAGE protein as analyte at 0.0156-0.35 µM, 1:1 binding fit
[2] = molecular target: synthetic peptide S155 of the RAGE V-domain (amino acids 39-65) (human); test: SPR, antibody amine-coupled to a CM5 chip as ligand, peptide S155 (B-Rad) as analyte at 0.25-4 µM, 1:1 binding fit
[3] = molecular target: T1, synthetic peptide S155 of the RAGE V-domain (amino acids 39-65) (human); test: ELISA, BSA-conjugated peptide S155 on the plate, two-fold dilutions of antibody, HRP anti-mouse, OD 450 nm
T1 construct: injected as analyte in SPR; also called RAGE synthetic peptide
T1 peptide: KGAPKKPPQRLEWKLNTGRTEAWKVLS
Experimental: FIG. 2: Screening of purified anti-RAGE antibodies by enzyme linked immunosorbent assay (ELISA). BSA-conjugated synthetic peptides of RAGE protein were immobilized onto microplates and incubated with two-fold serial dilutions of antibodies.
A 96-well plate was coated with 5 μg/ml of RAGE synthetic peptides or RAGE recombinant protein diluted in phosphate-buffered saline (pH 7.4) overnight at 4° C. The solution was removed, washed with PBS-Tween (PBST) and the plate was blocked with ELISA ultrablock buffer (Biorad) for 1 h at room temperature. After blocking, the plate was washed with PBST and a range of concentrations of α-RAGE antibodies was applied to the plate for 2 h at room temperature. The plate was washed thoroughly with PBST and incubated with HRP-conjugated anti-mouse antibodies diluted 1:1000 in PBS-Tween. After washes with PBST, TMB Core+ substrate solution (Biorad) was added to each well and incubated at room temperature for 30 minutes. 0.2M H2SO4 was used as a stop solution. Absorbance at 450 nm was measured in a Biorad absorbance microplate reader.
The initial screening of the 6 murine antibody clones against RAGE was undertaken by ELISA. For this evaluation a range of 15 concentrations of each antibody clone was applied to the plate.

[4] = molecular target: T1, synthetic peptide S155 of the RAGE …; test: SPR (Biacore T200), antibody amine-coupled to a CM5 chip as ligand, RAGE peptide S155 (BioRad) as analyte, multi-cycle kinetics, 1:1 fit; 'No steady state.'
Experimental: This was followed by diluting the ligand with the appropriate Acetate buffer to at least 10 μg/mL. The ligand immobilization on the surface Series S Sensor Chip CM5 (29-1496-03, Cytiva) was performed using the Amine Coupling Kit (BR100050, Cytiva) containing 1-Etyhyl-3-(3-dimethylaminopropyl)-carbodiimide hydrochloride (EDC), N-Hydroxysuccinimide (NHS) and 1.0M ethanolamine-HcL PH 8.5 in accordance with the manufacturer's instructions. For each experimental run, the ligand was immobilized in flow cells 2 or 4 while flow cells 1 or 3 were left unmodified. […] Following each binding cycle, the surface was regenerated with a 30 s injection of 10 mM Glycine-HcL, pH 2.5 regeneration solution (BR-1003-56), removing the bound antibody with a contact time of 30 s, flow rate of 30 μL/min and a stabilization period of Os. Blank cycles (buffer only injection followed by regeneration step) was also performed. Data was double referenced by first subtracting responses from the reference flow cell and then subtracting the blank cycles. Data was then fitted to a 1:1 binding model using Biacore™ T200 Evaluation Software 2.0 and Biacore™ Insight Evaluation Software.
SPR analysis was subsequently used to evaluate the binding kinetics of the different murine clones to their targets (either using synthetic peptide used to produce the clones or recombinant RAGE protein (Uniprot reference: Q15109-1) Peptide S155=Original peptide from Biorad used to produce the murine clones. Human rRAGE=Full-length RAGE recombinant protein from Merck). The SPR parameters used for this analysis are described in the detailed methods.

[5] = molecular target: T1, synthetic peptide S155 of the RAGE …; test: SPR (Biacore T200), antibody amine-coupled to a CM5 chip as ligand, RAGE Peptide (S155) as analyte, multi-cycle kinetics, 1:1 fit; 'No steady state.'
Experimental: Data were then fitted to a 1:1 binding model.
For on-rate and off-rate screening, Biacore™ T200 system (Cytiva, Uppsala, Sweden) was used to perform SPR analysis with 1×HBS-EP+ buffer (0.01M Hepes, 0.15M NaCl, 0.003M ethylenediaminetetraacetic acid, and 0.05% Surfactant P20, pH 7.4) (BR100669) used as sample and running buffer. The analysis temperature at the sensor chip surface and within the compartment was set to 25° C. Firstly, pH scouting with 10 mM sodium acetate buffer 4.0 (BR-1003-49), 10 mM sodium acetate buffer 4.5 (BR-1003-50), 10 mM sodium acetate buffer 5.0 (BR-1003-51) and 10 mM sodium acetate buffer 5.5 (BR-1003-52) was performed to identify the optimal pH required for ligand (α-RAGE antibodies) immobilization. This was followed by diluting the ligand with the appropriate Acetate buffer to at least 10 μg/mL. The ligand immobilization on the surface Series S Sensor Chip CM5 (29-1496-03, Cytiva) was performed using the Amine Coupling Kit (BR100050, Cytiva) containing 1-Etyhyl-3-(3-dimethylaminopropyl)-carbodiimide hydrochloride (EDC), N-Hydroxysuccinimide (NHS) and 1.0M ethanolamine-HcL PH 8.5 in accordance with the manufacturer's instructions. For each experimental run, the ligand was immobilized in flow cells 2 or 4 while flow cells 1 or 3 were left unmodified.

[6] = molecular target: synthetic peptide S155 of the RAGE V-domain (amino acids 39-65) (human); test: SPR (Biacore T200), antibody amine-coupled to a CM5 chip as ligand, RAGE peptide S155 (BioRad) as analyte, multi-cycle kinetics, 1:1 fit; 'No steady state.'
[7] = molecular target: RAGE (Homo sapiens, UniProt Q15109); test: Binding target blocking assay by immunofluorescence on HEC-1A cells; format: cell-based; design: endogenous in cells; host or cells: HEC-1A (ECACC); details: then antibody at 4 μg/ml
Sequence of RAGE (Q15109 23-404): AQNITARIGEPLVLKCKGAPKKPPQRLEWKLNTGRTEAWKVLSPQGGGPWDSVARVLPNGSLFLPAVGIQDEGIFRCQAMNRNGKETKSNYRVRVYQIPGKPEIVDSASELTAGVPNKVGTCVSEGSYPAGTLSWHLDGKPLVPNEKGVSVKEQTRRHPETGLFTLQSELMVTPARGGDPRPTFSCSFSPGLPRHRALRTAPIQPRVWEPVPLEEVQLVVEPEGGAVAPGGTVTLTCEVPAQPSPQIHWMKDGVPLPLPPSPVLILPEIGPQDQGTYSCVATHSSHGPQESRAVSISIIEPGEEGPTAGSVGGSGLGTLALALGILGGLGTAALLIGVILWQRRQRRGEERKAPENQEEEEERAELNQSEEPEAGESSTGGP
Experimental: To proof that HA9 shares similar binding epitope as other α-RAGE antibodies, an immunofluorescence approach was used. For this purpose, 1.5×10^4 HEC1A cells/well (obtained from the European Collection of Authenticated Cell Cultures, ECACC, Public Health England, UK) were seeded in 8-well chamber slides (Ibidi) in 300 μl of stripped medium and cultured for 24 h in a humidified, 5% CO2 in air atmosphere incubator at 37° C. After culture, cells were fixed with 4% paraformaldehyde (Sigma) for 20 minutes, permeabilized with 0.1% Triton X-100 (Sigma) for 10 minutes at 4° C. and blocked with 3% BSA in PBS for 1 h. Cells were then pre-incubated with a primary antibody against RAGE at a concentration in excess (20 μg/ml in 3% BSA in PBS for 1 h) to block the specific epitope they bind, before cells were incubated with the α-RAGE antibody of interest at 4 μg/ml in 3% BSA-PBS overnight at 4° C. This was followed by 1 h incubation with Alexa-fluorophore-conjugated secondary antibodies. Cells were washed with PBS extensively between all steps, counterstained before imaging with Hoechst (Life Technologies™) and imaged using a LSM710 confocal fluorescence microscopy system (Zeiss, UK). The mean intensity of fluorescence was obtained using imageJ by measuring the integrated density per imaged field, normalised by the number of cells in the respective field and obtaining the mean from >10 fields obtained per condition. A decrease in fluorescence in the pre-blocked condition compared with the not-pre-blocked condition means both antibodies share similar epitope of binding on the same protein.

Sequence of Human rRAGE, full-length RAGE recombinant protein from Merck (human) (Q15109 23-404 limits assumed): as the sequence (Q15109 23-404) above

α-RAGE Abcam (Abcam, ab37647) (antibody)
Kd [1]: 4.31 nM
koff [1]: 0.00077 s⁻¹
kon [1]: 180000 M⁻¹ s⁻¹
Kd [2]: 54.1 nM
koff [2]: 4.46 s⁻¹
kon [2]: 8.2e+07 M⁻¹ s⁻¹

B1: murine BG7 anti-RAGE monoclonal antibody (antibody, V domains shown)
VH: EVKLDETGGGLVQPGRPMKLSCIASGFTLSDYWMNWVRQSPEKGLEWVAQIRNRPYNFETLYSDSVKGRFIISRDDSKNSVYLQMDNLGPDDSGIYYCSSYRYGLAYWGQGTLVTVSA
VL: DILLTQSPAILSVSPGERVSISCRASQTIDKRIHWYQQRTNGSPRLLIKYMSESISGTPSRFSGSGSGTDFTLTINSVESEDIAVYYCQQTNYWPITFGSGTKLELK
notes: Murine hybridoma antibody
EC50 (read off the curve) [3]: ~0.02 µg/mL
Kd [4]: 410 nM
koff [4]: 0.02 s⁻¹
kon [4]: 49000 M⁻¹ s⁻¹

B2: murine IG7 anti-RAGE monoclonal antibody (antibody, V domains shown)
VH: B1 VH
VL: B1 VL
notes: Same VH and VL as BG7; also called ID7
EC50 (read off the curve) [3]: ~0.02 µg/mL
Kd [4]: 860 nM
koff [4]: 0.00326 s⁻¹
kon [4]: 3790 M⁻¹ s⁻¹

B3: Anti-BG7 (Chimeric) (antibody, V domains shown)
VH: B1 VH
VL: B1 VL
notes: also called hBG7; chimeric BG7
Kd [5]: 607 nM
koff [5]: 0.0028 s⁻¹

B4: murine HA9 (mHA9) anti-RAGE monoclonal antibody (antibody, V domains shown)
VH: EVKLVETGGGLVQPGRPMKLSCVASGFTLSDHWMNWVRQSPEKGLEWVAQIRNRPYKFEKYYSDSVKGRFTISRDDSKNSVYLQMNNLRAEDMGIYYCSSYRYGLAYWGQGTLVTVST
VL: DNLLTQSPAILSVSPGERVSFSCRASQTIDTRIHWYQQRKNGSPRLLIRYISESLSGIPSRFSGSGSGTEFTLTINSVESEDIADYYCQQTESWPITFGSGTKLEIK
notes: Murine hybridoma antibody, purified on protein G; also called HA9 clone
EC50 (read off the curve) [3]: ~0.01 µg/mL
Kd [4]: 720 nM
koff [4]: 0.0033 s⁻¹

B5: murine BC3 anti-RAGE monoclonal antibody (antibody, part only; not given: Light chain variable region, V domains shown, part only)
VH: QVQLKQSGPGLVQPSQSLSITCTVSGFSLTNYGVHWVRQSPGKGLEWLGVIWTGGNTDYNAAFISRLSITKDNSKSQVFFKMNSLQANDTAIYYCARNLRGGYYGAWFAYWGQGTLVTVSA
Kd [6]: 890 nM
koff [6]: 0.00333 s⁻¹
kon [6]: 3720 M⁻¹ s⁻¹

B6: murine CG7 (mCG7) anti-RAGE monoclonal antibody (antibody, V domains shown)
VH: B5 VH
VL: DVVMTQTPLSLPVSLGDQASISCRSSQTLVHSNGNTYLHWYLQKPGQSPKLLIYKVSNRFSGVPDRFTGSGSGTDFTLKISRVEAEDLGVYFCSQSTHVPPLTFGAGTKLELK
notes: Murine hybridoma antibody
Kd [4]: 296 nM
koff [4]: 0.00901 s⁻¹
kon [4]: 30000 M⁻¹ s⁻¹

B7: CG7: anti-RAGE antibody clone raised against RAGE peptide aa 39-65 (antibody, V domains shown)
VH: B5 VH
VL: B6 VL
staining after Abcam antibody pre-blocking ([7]; Abcam antibody 20 μg/ml pre-incubation): did not result in a decrease
staining after N16 pre-blocking ([7]; N16 20 μg/ml pre-incubation): unaffected

B8: Anti-CG7 (Chimeric) (antibody, V domains shown)
VH: B5 VH
VL: B6 VL
notes: also called hCG7; chimeric CG7
Kd [5]: 320 nM
koff [5]: 0.0095 s⁻¹

Reference: patent US20250163149A1, “ANTI-RAGE ANTIBODY” (Swansea University, priority 2022, published 2025)
